Earlier results in paper PMC11381289.
Where two headings read alike, the source gives them in different places.

What was measured:
[1] = target: TL (Mus musculus) (UniProt P14432)
[2] = target: TL (Mus musculus) (UniProt P14432); remark: listed apart in the source

Sequence of UniProt P14432 (P14432 27-314): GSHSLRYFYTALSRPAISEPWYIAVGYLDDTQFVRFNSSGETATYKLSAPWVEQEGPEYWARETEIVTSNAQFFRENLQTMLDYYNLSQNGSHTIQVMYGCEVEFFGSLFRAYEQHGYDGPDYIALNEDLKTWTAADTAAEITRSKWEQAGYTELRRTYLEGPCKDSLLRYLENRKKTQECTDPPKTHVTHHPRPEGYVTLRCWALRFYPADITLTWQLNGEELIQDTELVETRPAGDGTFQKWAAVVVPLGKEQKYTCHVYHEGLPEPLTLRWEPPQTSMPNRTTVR

| Kd [1] | Kd [2] | Substance |
| --- | --- | --- |
| > 90 µM | – | CD8αβ (from UniProt P01731) |
| – | 12 µM | CD8αα (from UniProt P01731) |
